Results as given in publication PMC11413795, “Milk-derived extracellular vesicles enable gut-to-tumor oral delivery of tumor-activated doxorubicin prodrugs” (Theranostics, 2024).
Peptide text beside a SMILES is read from it. * marks the point of attachment. Doxorubicin(3'-N) = COc1cccc2c1C(=O)c1c(O)c3c(c(O)c1C2=O)C[C@@](O)(C(=O)CO)C[C@@H]3O[C@H]1C[C@H](N*)[C@H](O)[C@H](C)O1

How the values were obtained:
[1] = Biodistribution after oral administration, NIRF imaging of GI tract; design: species or system BALB/c mice; details: mouse
Experimental: All animal experiments were performed following the International Guide for the Care and Use of Laboratory Animals and were approved by the Korea Institute of Science and Technology. 7-week-old BALB/c mice (n = 3 per each time point) were used to monitor the in vivo biodistribution of mEVs. […] Fluorescence signals in the GI tract were monitored by NIRF imaging. Following the assessment of GI tract distribution, all mice were anesthetized using 2.5% isoflurane gas and dissected to extract their major organs (liver, lung, spleen, heart, and kidney) along with the GI tract, and blood for PK analysis. PK analysis was performed by measuring the fluorescence signal of FDX and mEVs present in the blood at each time point (20 min, 40 min, 1 h, 3 h, 6 h, and 24 h).

[2] = Systemic toxicity after repeated oral administration; format: in vivo, BALB/c mice; details: 10 mg/kg FDX or equivalent, three-day intervals, n = 5
Experimental: To evaluate the therapeutic efficacy of FDX@mEVs, all controls and FDX@mEVs (PBS, mEVs, FDX, and FDX@mEVs; an equivalent dose of 10 mg/kg of FDX dispersed in 100 μL of PBS) were orally administered to CT26 tumor-bearing mice when the average tumor size reached approximately 50 - 70 mm^3. The CT26 tumor-bearing mice were modeled in the same manner as the previous method by inoculating 1.5 x 10^6 cells into the left flank of 7-week-old BALB/c mice (BALB/cAnNCrlOri). The six-repeated administration was conducted every three days, and tumor sizes and body weights were measured every two days. All subjects were sacrificed three days after the last administration, and blood, major organs, and tumor tissues were collected for the following analysis.
Systemic toxicity of FDX@mEVs was assessed by analyzing hematological parameters and histological assay of major organs. To assess liver damage by FDX@mEVs, AST, and ALT levels were analyzed. In addition, BUN and creatinine levels were also evaluated to confirm renal toxicity. Subsequently, all major organs were used for H&E staining to verify the histological damage of FDX@mEVs. H&E staining was performed according to the same protocol used in our previous study. Briefly, all sections were incubated in Hematoxylin solution for 5 min at RT. All incubated tissue sections were washed using tap water for 3 min. […]

COc1cccc2c1C(=O)c1c(O)c3c(c(O)c1C2=O)C[C@@](O)(C(=O)CO)C[C@@H]3O[C@H]1C[C@H](NC(=O)CNC(=O)[C@H](CCCNC(=N)N)NC(=O)[C@H](CCCNC(=N)N)NC(=O)[C@H](Cc2ccccc2)NC(C)=O)[C@H](O)[C@H](C)O1 [FDX, FRRG-DOX] (Ac-FRRG-{Doxorubicin(3'-N)})
in vivo clearance time after oral administration [1]: ≤ 3 h
body weight during repeated oral administration compared to PBS group [2]: no significant changes
